Test results taken from paper doi:10.1101/2020.04.10.035014 (bioRxiv, 2020).
Blank lines part the entries; values can stand above or below the binder they belong to.

B1: C-terminus of INTS3 (INTS3c; residues 560-905 and 915-995, co-expressed) (domain or fragment, human)
chain 1: TVVEEPVDITPYLDQLDESLRDKVLQLQKGSDTEAQCEVMQEIVDQVLEEDFDSEQLSVLASCLQELFKAHFRGEVLPEEITEESLEESVGKPLYLIFRNLCQMQEDNSSFSLLLDLLSELYQKQPKIGYHLLYYLRASKAAAGKMNLYESFAQATQLGDLHTCLMMDMKACQEDDVRLLCHLTPSIYTEFPDETLRSGELLNMIVAVIDSAQLQELVCHVMMGNLVMFRKDSVLNILIQSLDWETFEQYCAWQLFLAHNIPLETIIPILQHLKYKEHPEALSCLLLQLRREKPSEEMVKMVLSRPCHPDDQFTTSILRHWCMKHDELLAEHIKSLLIKNNSLPRK
chain 2: KLAQLTLEQILEHLDNLRLNLTNTKQNFFSQTPILQALQHVQASCDEAHKMKFSDLFSLAEEYEDSSTKPPKSRRKAALSS

Legend:
crystal structure = biological target: the molecule itself; assay: crystal structure
[1] = biological target: B1; assay: crystal structure
SEC = biological target: the molecule itself; assay: SEC

Binder: B1
stoichiometry N (crystal structure): 2

binding result [1]: binds
B2: C-terminus of INTS6 (INTS6c; residues 800-887) (domain or fragment, human, UniProt Q9UL03 800-887, looked up)
chain: MHCRSHEEVNTELKAQIMKEIRKPGRKYERIFTLLKHVQGSLQTRLIFLQNVIKEASRFKKRMLIEQLENFLDEIHRRANQINHINSN

B3: INTS3(1-995) (domain or fragment, human, UniProt Q68E01 1-995, looked up)
chain: MELQKGKGAAAAAAASGAAGGGGGGAGAGAPGGGRLLLSTSLDAKDELEERLERCMSIVTSMTAGVSEREANDALNAYVCKGLPQHEEICLGLFTLILTEPAQAQKCYRDLALVSRDGMNIVLNKINQILMEKYLKLQDTCRTQLVWLVRELVKSGVLGADGVCMTFMKQIAGGGDVTAKNIWLAESVLDILTEQREWVLKSSILIAMAVYTYLRLIVDHHGTAQLQALRQKEVDFCISLLRERFMECLMIGRDLVRLLQNVARIPEFELLWKDIIHNPQALSPQFTGILQLLQSRTSRKFLACRLTPDMETKLLFMTSRVRFGQQKRYQDWFQRQYLSTPDSQSLRCDLIRYICGVVHPSNEVLSSDILPRWAIIGWLLTTCTSNVAASNAKLALFYDWLFFSPDKDSIMNIEPAILVMHHSMKPHPAITATLLDFMCRIIPNFYPPLEGHVRQGVFSSLNHIVEKRVLAHLAPLFDNPKLDKELRAMLREKFPEFCSSPSPPVEVKIEEPVSMEMDNHMSDKDESCYDNAEAAFSDDEEDLNSKGKKREFRFHPIKETVVEEPVDITPYLDQLDESLRDKVLQLQKGSDTEAQCEVMQEIVDQVLEEDFDSEQLSVLASCLQELFKAHFRGEVLPEEITEESLEESVGKPLYLIFRNLCQMQEDNSSFSLLLDLLSELYQKQPKIGYHLLYYLRASKAAAGKMNLYESFAQATQLGDLHTCLMMDMKACQEDDVRLLCHLTPSIYTEFPDETLRSGELLNMIVAVIDSAQLQELVCHVMMGNLVMFRKDSVLNILIQSLDWETFEQYCAWQLFLAHNIPLETIIPILQHLKYKEHPEALSCLLLQLRREKPSEEMVKMVLSRPCHPDDQFTTSILRHWCMKHDELLAEHIKSLLIKNNSLPRKRQSLRSSSSKLAQLTLEQILEHLDNLRLNLTNTKQNFFSQTPILQALQHVQASCDEAHKMKFSDLFSLAEEYEDSSTKPPKSRRKAALSS
stoichiometry N (SEC): 2
